Assay results as given in the supplement of paper PMC11246515.
± gives the standard deviation of the averaged measurements.

Experiment: total protein half-life in vivo (active degradation + dilution); higher = more stable protein
[1] = E. coli NCM3722 delta-clpP, growth: N-lim chemostat, doubling time 6 h
[2] = E. coli NCM3722 delta-hslV, growth: N-lim chemostat, doubling time 6 h
[3] = E. coli NCM3722 delta-lon, growth: N-lim chemostat, doubling time 6 h
[4] = E. coli NCM3722 delta-smpB, growth: N-lim chemostat, doubling time 6 h
[5] = wild type E. coli NCM3722, growth: C-lim chemostat, doubling time 3 h
[6] = wild type E. coli NCM3722, growth: C-lim chemostat, doubling time 6 h
[7] = wild type E. coli NCM3722, growth: C-lim chemostat, doubling time 12 h
[8] = wild type E. coli NCM3722, growth: N-lim chemostat, doubling time 6 h
[9] = wild type E. coli NCM3722, growth: N-lim chemostat, doubling time 12 h
[10] = wild type E. coli NCM3722, growth: P-lim chemostat, doubling time 6 h
[11] = wild type E. coli NCM3722, growth: P-lim chemostat, doubling time 12 h
[12] = E. coli NCM3722 delta-clpP delta-lon delta-hslV, growth: N-lim chemostat, doubling time 6 h

Sequence	total protein half-life in vivo [1]	total protein half-life in vivo [2]	total protein half-life in vivo [3]	total protein half-life in vivo [4]	total protein half-life in vivo [5]	total protein half-life in vivo [6]	total protein half-life in vivo [7]	total protein half-life in vivo [8]	total protein half-life in vivo [9]	total protein half-life in vivo [10]	total protein half-life in vivo [11]	total protein half-life in vivo [12]
MKKLVLSLSLVLAFSSATAAFAAIPQNIRIGTDPTYAPFESKNSQGELVGFDIDLAKELCKRINTQCTFVENPLDALIPSLKAKKIDAIMSSLSITEKRQQEIAFTDKLYAADSRLVVAKNSDIQPTVESLKGKRVGVLQGTTQETFGNEHWAPKGIEIVSYQGQDNIYSDLTAGRIDAAFQDEVAASEGFLKQPVGKDYKFGGPSVKDEKLFGVGTGMGLRKEDNELREALNKAFAEMRADGTYEKLAKKYFDFDVYGG [P0AEU0]	5.99 ± 0.12 h	6.1 ± 0.068 h	6.35 ± 0.24 h	5.88 ± 0.91 h	3.08 ± 0.17 h	6.45 ± 1 h	13.1 ± 0.17 h	5.8 ± 0.59 h	13.9 ± 0.36 h	6.2 ± 0.54 h	14.3 ± 0.77 h	–
MKKPLRQQNRQIISYVPRTEPAPPEHAIKMDSFRDVWMLRGKYVAFVLMGESFLRSPAFTVPESAQRWANQIRQEGEVTE [P0AE60]	5.19 h	3.87 h	–	–	–	–	–	3.66 h	6.6 h	4.26 ± 1.1 h	9.35 h	–
MKKQRNLRSMAAQAVEQVVEQGQSLSNILPPLQQKVSDKDKALLQELCFGVLRTLSQLDWLINKLMARPMTGKQRTVHYLIMVGLYQLLYTRIPPHAALAETVEGAIAIKRPQLKGLINGVLRQFQRQQEELLAEFNASDARYLHPSWLLKRLQKAYPEQWQSIVEANNQRPPMWLRINRTHHSRDSWLALLDEAGMKGFPHADYPDAVRLETPAPVHALPGFEDGWVTVQDASAQGCMTWLAPQNGEHILDLCAAPGGKTTHILEVAPEAQVVAVDIDEQRLSRVYDNLKRLGMKATVKQGDGRYPSQWCGEQQFDRILLDAPCSATGVIRRHPDIKWLRRDRDIPELAQLQSEILDAIWPHLKTGGTLVYATCSVLPEENSLQIKAFLQRTADAELCETGTPEQPGKQNLPGAEEGDGFFYAKLIKK	5.642 ± 0.039 h	5.05 ± 1.1 h	5.17 ± 0.74 h	4.92 ± 0.25 h	2.88 ± 0.45 h	6.66 ± 1.9 h	12.4 ± 0.73 h	6.14 ± 0.58 h	10.9 ± 0.76 h	6.96 ± 0.51 h	12.7 ± 0.89 h	5.88 ± 1 h
MKKQTQLLSALALSVGLTLSASFQAVASIPGQVADQAPLPSLAPMLEKVLPAVVSVRVEGTASQGQKIPEEFKKFFGDDLPDQPAQPFEGLGSGVIINASKGYVLTNNHVINQAQKISIQLNDGREFDAKLIGSDDQSDIALLQIQNPSKLTQIAIADSDKLRVGDFAVAVGNPFGLGQTATSGIVSALGRSGLNLEGLENFIQTDASINRGNSGGALLNLNGELIGINTAILAPGGGSVGIGFAIPSNMARTLAQQLIDFGEIKRGLLGIKGTEMSADIAKAFNLDVQRGAFVSEVLPGSGSAKAGVKAGDIITSLNGKPLNSFAELRSRIATTEPGTKVKLGLLRNGKPLEVEVTLDTSTSSSASAEMITPALEGATLSDGQLKDGGKGIKIDEVVKGSPAAQAGLQKDDVIIGVNRDRVNSIAEMRKVLAAKPAIIALQIVRGNESIYLLMR	–	6.47 ± 0.17 h	6.3328 ± 0.0043 h	5.56 ± 0.2 h	3.05 ± 0.14 h	6.305 ± 0.0077 h	10 ± 0.31 h	6.06 ± 0.2 h	11.7 ± 0.17 h	5.48 ± 0.15 h	10.6 ± 0.71 h	6.2 ± 0.32 h
MKKRIPTLLATMIATALYSQQGLAADLASQCMLGVPSYDRPLVQGDTNDLPVTINADHAKGDYPDDAVFTGSVDIMQGNSRLQADEVQLHQKEAPGQPEPVRTVDALGNVHYDDNQVILKGPKGWANLNTKDTNVWEGDYQMVGRQGRGKADLMKQRGENRYTILDNGSFTSCLPGSDTWSVVGSEIIHDREEQVAEIWNARFKVGPVPIFYSPYLQLPVGDKRRSGFLIPNAKYTTTNYFEFYLPYYWNIAPNMDATITPHYMHRRGNIMWENEFRYLSQAGAGLMELDYLPSDKVYEDEHPNDDSSRRWLFYWNHSGVMDQVWRFNVDYTKVSDPSYFNDFDNKYGSSTDGYATQKFSVGYAVQNFNATVSTKQFQVFSEQNTSSYSAEPQLDVNYYQNDVGPFDTRIYGQAVHFVNTRDDMPEATRVHLEPTINLPLSNNWGSINTEAKLLATHYQQTNLDWYNSRNTTKLDESVNRVMPQFKVDGKMVFERDMEMLAPGYTQTLEPRAQYLYVPYRDQSDIYNYDSSLLQSDYSGLFRDRTYGGLDRIASANQVTTGVTSRIYDDAAVERFNISVGQIYYFTESRTGDDNITWENDDKTGSLVWAGDTYWRISERWGLRGGIQYDTRLDNVATSNSSIEYRRDEDRLVQLNYRYASPEYIQATLPKYYSTAEQYKNGISQVGAVASWPIADRWSIVGAYYYDTNANKQADSMLGVQYSSCCYAIRVGYERKLNGWDNDKQHAVYDNAIGFNIELRGLSSNYGLGTQEMLRSNILPYQNTL	6.59 ± 0.56 h	6.39 ± 0.33 h	6.28 ± 0.42 h	6 ± 0.24 h	3.25 ± 0.27 h	6.269 ± 0.016 h	13.3 ± 0.19 h	6.7 ± 0.21 h	13 ± 0.44 h	6.34 ± 0.59 h	13.5 ± 0.86 h	6.76 ± 0.85 h
MKKRKTVKKRYVIALVIVIAGLITLWRILNAPVPTYQTLIVRPGDLQQSVLATGKLDALRKVDVGAQVSGQLKTLSVAIGDKVKKDQLLGVIDPEQAENQIKEVEATLMELRAQRQQAEAELKLARVTYSRQQRLAQTKAVSQQDLDTAATEMAVKQAQIGTIDAQIKRNQASLDTAKTNLDYTRIVAPMAGEVTQITTLQGQTVIAAQQAPNILTLADMSAMLVKAQVSEADVIHLKPGQKAWFTVLGDPLTRYEGQIKDVLPTPEKVNDAIFYYARFEVPNPNGLLRLDMTAQVHIQLTDVKNVLTIPLSALGDPVGDNRYKVKLLRNGETREREVTIGARNDTDVEIVKGLEAGDEVVIGEAKPGAAQ	–	–	6.45 ± 0.1 h	6.19 ± 0.26 h	3.07 ± 0.068 h	6.04 ± 0.16 h	12.54 ± 0.11 h	6.37 ± 0.067 h	13.5 ± 1.4 h	5.83 ± 0.37 h	12 ± 0.15 h	6.09 ± 0.067 h
MKKRVYLIAAVVSGALAVSGCTTNPYTGEREAGKSAIGAGLGSLVGAGIGALSSSKKDRGKGALIGAAAGAALGGGVGYYMDVQEAKLRDKMRGTGVSVTRSGDNIILNMPNNVTFDSSSATLKPAGANTLTGVAMVLKEYPKTAVNVIGYTDSTGGHDLNMRLSQQRADSVASALITQGVDASRIRTQGLGPANPIASNSTAEGKAQNRRVEITLSPL	5.47 h	6.78 ± 0.46 h	6.16 ± 0.47 h	5.3 ± 0.5 h	2.78 ± 0.1 h	5.45 ± 0.11 h	–	5.81 ± 0.95 h	12.6 h	5.82 h	11.4 ± 0.82 h	–
